Measurements: PMC5414288, “^99mTc-radiolabeled GE11-modified peptide for ovarian tumor targeting” (DARU Journal of Pharmaceutical Sciences, 2017)

How the values were obtained:
Stability in human serum = format: in vitro ADME; conditions: fresh human serum (100 μl to 20 μl reaction mixture), 37 °C, 4 h, acetonitrile/ethanol precipitation, RP-HPLC
Method: Serum stability of the peptide was also determined following addition of 100 μl of fresh human serum to 20 μl of the reaction mixture and incubation for 1 and 4 h at 37 °C. Plasma samples were then treated with 500 μl of a mixture of acetonitrile and ethanol (1:1), centrifuged (14,000 rpm, 6 min), filtered (0.22 μm) and degradation of the radiolabeled peptide was assessed in supernatant by RP-HPLC [24].

[1] = Biodistribution study in normal mice; format: in vivo; conditions: normal female NMRI mice, 1 μg i.v., mean ± SD, n = 4
Method: Normal female NMRI mice (20–30 g, Mazandaran animal center institute, Sari, Iran) were used in this study and randomly divided into 3 groups of 4. 100 μL of the solution containing 1 μg of the radiolabeled peptide was intravenously injected to the tail vein of each mouse. Mice were euthanized through intraperitoneal injection of ketamine and xylazine at 1, 4 and 24 h after injection. Blood was collected from the heart after deep anesthesia by a syringe which had been washed with heparin. Thereafter, organ samples including; lungs, stomach, liver, kidneys, bone, muscle, salivary glands, heart, spleen and intestines were removed, weighted and the radioactivity of each sample was measured. The tissue uptake of all organs except intestine was calculated as percent of injected dose per gram tissue (% ID/g) and for the intestine was calculated as % ID of the whole sample.

[2] = system: SKOV3 human ovarian cancer xenografts; experiment: Biodistribution study in nude mice bearing SKOV3 xenografts; format: in vivo; conditions: female nude mice bearing SKOV3 xenograft, 1 μg i.v.; for Blood uptake / Bone uptake / Heart uptake / Intestine uptake / Kidney uptake / Liver uptake / Lung uptake / Muscle uptake / Spleen uptake / Stomach uptake / Tumor uptake / s.g & Th. (salivary gland and thyroid) uptake: mean ± SD
Method: The in vivo tumor-targeting of the radiolabeled peptide was studied in female nude mice bearing SKOV3 cancer xenografts. For tumor induction, 10 × 10^6 SKOV3 cells were subcutaneously injected into the right hind leg of nude mice and tumor was allowed to grow for about 4 weeks. In the day of experiment, the average tumor size was 0.63 ± 0.2 g and the mice were randomly divided into three groups of 4 mouse each. The mice were injected intravenously 1 μg of the radiolabelled peptide. At 1 h and 4 h after injection, the mice were sacrificed and the tumor and other tissues were dissected. Blocking experiment was also performed using three nude mice which were subjected to injection of the excess amount (500 μg/50 μl) of the unlabeled peptide 30 min before radioconjugate peptide injection.

[3] = 4 h p.i., blocked with excess unlabeled peptide (500 μg) 0.5 h before, n = 3

SMILES: CC[C@H](C)[C@H](NC(=O)[C@@H](NC(=O)[C@H](CC(N)=O)NC(=O)[C@H](CCC(N)=O)NC(=O)[C@@H]1CCCN1C(=O)[C@@H](NC(=O)[C@H](Cc1ccc(O)cc1)NC(=O)CNC(=O)[C@H](Cc1ccc(O)cc1)NC(=O)[C@H](Cc1c[nH]c2ccccc12)NC(=O)[C@H](Cc1c[nH]cn1)NC(=O)[C@H](Cc1ccc(O)cc1)NC(=O)[C@H](CO)NC(=O)[C@H](CO)NC(=O)[C@H](CO)NC(=O)c1ccc(NN)nc1)[C@@H](C)O)C(C)C)C(=O)O [^99mTc-tricine-HYNIC-SSS-GE11, metal not drawn]
- Stability in human serum (Stability in human serum): 96%
- Blood uptake ([1]; 1 h p.i.): 0.84 ± 0.04 % ID/g
- Bone uptake ([1]; 1 h p.i.): 0.97 ± 0.14 % ID/g
- Heart uptake ([1]; 1 h p.i.): 0.76 ± 0.16 % ID/g
- Kidney uptake ([1]; 1 h p.i.): 24.5 ± 1.7 % ID/g
- Liver uptake ([1]; 1 h p.i.): 2.88 ± 0.84 % ID/g
- Lung uptake ([1]; 1 h p.i.): 1.14 ± 0.63 % ID/g
- Muscle uptake ([1]; 1 h p.i.): 0.52 ± 0.14 % ID/g
- Spleen uptake ([1]; 1 h p.i.): 0.61 ± 0.14 % ID/g
- Stomach uptake ([1]; 1 h p.i.): 0.91 ± 0.27 % ID/g
- s.g & Th. (salivary gland and thyroid) uptake ([1]; 1 h p.i.): 0.87 ± 0.15 % ID/g
- Blood uptake ([1]; 4 h p.i.): less than 1 % ID/g
- Bone uptake ([1]; 4 h p.i.): 0.57 ± 0.2 % ID/g
- Heart uptake ([1]; 4 h p.i.): 0.44 ± 0.18 % ID/g
- Kidney uptake ([1]; 4 h p.i.): 17.5 ± 1.25 % ID/g
- Liver uptake ([1]; 4 h p.i.): 2.05 ± 0.39 % ID/g
- Lung uptake ([1]; 4 h p.i.): 0.68 ± 0.23 % ID/g
- Muscle uptake ([1]; 4 h p.i.): 0.23 ± 0.11 % ID/g
- Spleen uptake ([1]; 4 h p.i.): 0.41 ± 0.13 % ID/g
- Stomach uptake ([1]; 4 h p.i.): 0.57 ± 0.15 % ID/g
- s.g & Th. (salivary gland and thyroid) uptake ([1]; 4 h p.i.): 0.46 ± 0.22 % ID/g
- Blood uptake ([1]; 4 h p.i., listed as 99mTc-Tricine-HYNIC-SSS-GE11): 0.39 ± 0.11 % ID/g
- Blood uptake ([1]; 24 h p.i.): 0.18 ± 0.05 % ID/g
- Bone uptake ([1]; 24 h p.i.): 0.28 ± 0.05 % ID/g
- Heart uptake ([1]; 24 h p.i.): 0.40 ± 0.2 % ID/g
- Kidney uptake ([1]; 24 h p.i.): 3.55 ± 0.38 % ID/g
- Liver uptake ([1]; 24 h p.i.): 0.33 ± 0.069 % ID/g
- Lung uptake ([1]; 24 h p.i.): 0.47 ± 0.09 % ID/g
- Muscle uptake ([1]; 24 h p.i.): 0.19 ± 0.05 % ID/g
- Spleen uptake ([1]; 24 h p.i.): 0.20 ± 0.06 % ID/g
- Stomach uptake ([1]; 24 h p.i.): 0.32 ± 0.19 % ID/g
- s.g & Th. (salivary gland and thyroid) uptake ([1]; 24 h p.i.): 0.36 ± 0.12 % ID/g
- Blood uptake ([2]; 1 h p.i., n = 4): 2.53 ± 0.51 % ID/g
- Bone uptake ([2]; 1 h p.i., n = 4): 1.91 ± 0.53 % ID/g
- Heart uptake ([2]; 1 h p.i., n = 4): 2.40 ± 0.96 % ID/g
- Intestine uptake ([2]; 1 h p.i., n = 4): 8.38 ± 4.11 % ID/g
- Kidney uptake ([2]; 1 h p.i., n = 4): 64.95 ± 7.81 % ID/g
- Liver uptake ([2]; 1 h p.i., n = 4): 6.93 ± 0.95 % ID/g
- Lung uptake ([2]; 1 h p.i., n = 4): 3.39 ± 0.64 % ID/g
- Muscle uptake ([2]; 1 h p.i., n = 4): 0.99 ± 0.21 % ID/g
- Spleen uptake ([2]; 1 h p.i., n = 4): 2.86 ± 0.17 % ID/g
- Stomach uptake ([2]; 1 h p.i., n = 4): 2.65 ± 0.66 % ID/g
- Tumor uptake ([2]; 1 h p.i., n = 4): 2.33 ± 0.67 % ID/g
- s.g & Th. (salivary gland and thyroid) uptake ([2]; 1 h p.i., n = 4): 2.52 ± 0.82 % ID/g
- Tumor/Blood Ratio ([2]; 1 h p.i., n = 4): 0.92
- Tumor/Bone Ratio ([2]; 1 h p.i., n = 4): 1.2
- Tumor/Muscle Ratio ([2]; 1 h p.i., n = 4): 2.3
- Blood uptake [2, 3]: 0.99 ± 0.18 % ID/g
- Bone uptake [2, 3]: 1.01 ± 0.11 % ID/g
- Heart uptake [2, 3]: 0.65 ± 0.1 % ID/g
- Intestine uptake [2, 3]: 3.83 ± 2.1 % ID/g
- Kidney uptake [2, 3]: 42.10 ± 4.39 % ID/g
- Liver uptake [2, 3]: 3.28 ± 0.93 % ID/g
- Lung uptake [2, 3]: 1.24 ± 0.12 % ID/g
- Muscle uptake [2, 3]: 0.51 ± 0.07 % ID/g
- Spleen uptake [2, 3]: 0.83 ± 0.1 % ID/g
- Stomach uptake [2, 3]: 1.16 ± 0.11 % ID/g
- Tumor uptake [2, 3]: 0.93 ± 0.10 % ID/g
- s.g & Th. (salivary gland and thyroid) uptake [2, 3]: 0.89 ± 0.16 % ID/g
- Tumor/Blood Ratio [2, 3]: 0.96
- Tumor/Bone Ratio [2, 3]: 0.92
- Tumor/Muscle Ratio [2, 3]: 1.86
- Blood uptake ([2]; 4 h p.i., n = 4): 1.43 ± 0.18 % ID/g
- Bone uptake ([2]; 4 h p.i., n = 4): 1.29 ± 0.29 % ID/g
- Heart uptake ([2]; 4 h p.i., n = 4): 1.56 ± 0.37 % ID/g
- Intestine uptake ([2]; 4 h p.i., n = 4): 3.24 ± 0.9 % ID/g
- Kidney uptake ([2]; 4 h p.i., n = 4): 57.90 ± 0.49 % ID/g
- Liver uptake ([2]; 4 h p.i., n = 4): 4.64 ± 0.69 % ID/g
- Lung uptake ([2]; 4 h p.i., n = 4): 1.79 ± 0.34 % ID/g
- Muscle uptake ([2]; 4 h p.i., n = 4): 0.51 ± 0.14 % ID/g
- Spleen uptake ([2]; 4 h p.i., n = 4): 1.49 ± 0.32 % ID/g
- Stomach uptake ([2]; 4 h p.i., n = 4): 1.53 ± 0.16 % ID/g
- Tumor uptake ([2]; 4 h p.i., n = 4): 1.66 ± 0.41 % ID/g
- s.g & Th. (salivary gland and thyroid) uptake ([2]; 4 h p.i., n = 4): 1.80 ± 0.21 % ID/g
- Tumor/Blood Ratio ([2]; 4 h p.i., n = 4): 1.17
- Tumor/Bone Ratio ([2]; 4 h p.i., n = 4): 1.3
- Tumor/Muscle Ratio ([2]; 4 h p.i., n = 4): 3.42
